Values joined by “and” are separate entries in the source; they are usually repeats but may differ in a detail not shown here. Identical values can stand only once.
Biological target: HIS6-GABARAP (human) (UniProt O95166)
Assay: native MS; proteins exchanged into ammonium acetate, nanoelectrospray, Synapt G2Si; C53 1-5 µM or IDR 2.5 µM with 5-20 µM ATG8A or GABARAP

Sequence of HIS6-GABARAP (human) (O95166 whole entry): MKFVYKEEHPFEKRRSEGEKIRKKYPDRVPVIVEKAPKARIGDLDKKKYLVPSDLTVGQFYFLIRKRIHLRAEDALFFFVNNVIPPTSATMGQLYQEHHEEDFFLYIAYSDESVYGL
Sequence of HIS6-HsC53 (Q96JB5 whole entry): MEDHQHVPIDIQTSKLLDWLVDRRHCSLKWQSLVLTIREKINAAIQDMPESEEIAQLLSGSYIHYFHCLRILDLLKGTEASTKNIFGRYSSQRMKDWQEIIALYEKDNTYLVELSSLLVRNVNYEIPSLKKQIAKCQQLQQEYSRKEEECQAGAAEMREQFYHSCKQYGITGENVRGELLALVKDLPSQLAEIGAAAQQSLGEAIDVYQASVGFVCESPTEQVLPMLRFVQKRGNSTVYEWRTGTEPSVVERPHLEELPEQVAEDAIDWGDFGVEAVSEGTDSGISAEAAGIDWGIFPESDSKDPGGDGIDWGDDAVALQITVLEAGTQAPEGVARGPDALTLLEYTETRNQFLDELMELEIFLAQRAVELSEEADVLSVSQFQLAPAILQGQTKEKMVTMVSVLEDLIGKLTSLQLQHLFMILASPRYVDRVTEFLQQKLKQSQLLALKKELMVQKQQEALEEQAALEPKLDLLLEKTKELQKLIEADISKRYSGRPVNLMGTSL

stoichiometry N (GABARAP per HsC53): 1 and 2
Substance: HIS6-HsC53 (from UniProt Q96JB5 1-506) (natural protein)
